Experimental data as given in PMC11257942.

Biological target: major core protein A10 of vaccinia virus (gene product of A10) (vaccinia virus (VACV) strain Western Reserve (WR))
Test: cryo-EM structure

Substance: major core protein A10 of vaccinia virus (gene product of A10) (natural protein)
- stoichiometry N: 3
